Measured values from US11994512B2, “Single-cell genomic methods to generate ex vivo cell systems that recapitulate in vivo biology with improved fidelity” (Massachusetts Institute of Technology, priority 2018, dated 2024).

B1: O35280 (protein, UniProt O35280 1-476, looked up)
chain: MAVPFVEDWDLVQTLGEGAYGEVQLAVNRITEEAVAVKIVDMKRAIDCPENIKKEICINKMLSHENVVKFYGHRREGHIQYLFLEYCSGGELFDRIEPDIGMPEQDAQRFFHQLMAGVVYLHGIGITHRDIKPENLLLDERDNLKISDFGLATVFRHNNRERLLNKMCGTLPYVAPELLKRKEFHAEPVDVWSCGIVLTAMLAGELPWDQPSDSCQEYSDWKEKKTYLNPWKKIDSAPLALLHKILVETPSARITIPDIKKDRWYNKPLNRGAKRPRATSGGMSESSSGFSKHIHSNLDFSPVNNGSSEETVKFSSSQPEPRTGLSLWDTGPSNVDKLVQGISFSQPTCPEHMLVNSQLLGTPGSSQNPWQRLVKRMTRFFTKLDADKSYQCLKETFEKLGYQWKKSCMNQVTVSTTDRRNNKLIFKINLVEMDEKILVDFRLSKGDGLEFKRHFLKIKGKLSDVVSSQKVWFPVT
modifications: full-length
B2: O09010 (protein, UniProt O09010 1-378, looked up)
chain: MLQRCGRRLLLALVGALLACLLVLTADPPPTPMPAERGRRALRSLAGSSGGAPASGSRAAVDPGVLTREVHSLSEYFSLLTRARRDADPPPGVASRQGDGHPRPPAEVLSPRDVFIAVKTTRKFHRARLDLLFETWISRHKEMTFIFTDGEDEALAKLTGNVVLTNCSSAHSRQALSCKMAVEYDRFIESGKKWFCHVDDDNYVNLRALLRLLASYPHTQDVYIGKPSLDRPIQATERISEHKVRPVHFWFATGGAGFCISRGLALKMGPWASGGHFMSTAERIRLPDDCTIGYIVEALLGVPLIRSGLFHSHLENLQQVPTTELHEQVTLSYGMFENKRNAVHIKGPFSVEADPSRFRSVHCHLYPDTPWCPRSAIF
modifications: full-length
B3: O09037 (protein, UniProt O09037 1-175, looked up)
chain: MLPHLVLNSISWMLLSCLLFVFQVQGEDFQKEVPSPRTSCPMGYKAYRSHCYALVMTPKSWFQADLVCQKRPSGHLVSILSGGEASFVSSLVNGRVDNYQDIWIGLHDPTMGQQPNGGGWEWSNSDVLNYLNWDGDPSSTVNRGHCGSLTASSGFLKWGDYYCDGTLPFVCKFKQ
modifications: full-length
B4: O08529 (protein, UniProt O08529 1-700, looked up)
chain: MAGIAIKLAKDREAAEGLGSHERAIKYLNQDYETLRNECLEAGALFQDPSFPALPSSLGYKELGPYSSKTRGIEWKRPTEICADPQFIIGGATRTDICQGALGDCWLLAAIASLTLNEEILARVVPPDQSFQENYAGIFHFQFWQYGEWVEVVVDDRLPTKDGELLFVHSAEGSEFWSALLEKAYAKINGCYEALSGGATTEGFEDFTGGIAEWYELRKPPPNLFKIIQKALEKGSLLGCSIDITSAADSEAVTYQKLVKGHAYSVTGAEEVESSGSLQKLIRIRNPWGQVEWTGKWNDNCPSWNTVDPEVRANLTERQEDGEFWMSFSDFLRHYSRLEICNLTPDTLTCDSYKKWKLTKMDGNWRRGSTAGGCRNYPNTFWMNPQYLIKLEEEDEDEEDGERGCTFLVGLIQKHRRRQRKMGEDMHTIGFGIYEVPEELTGQTNIHLGKNFFLTTRARERSDTFINLREVLNRFKLPPGEYVLVPSTFEPHKDGDFCIRVFSEKKADYQAVDDEIEANIEEIDANEEDIDDGFRRLFVQLAGEDAEISAFELQTILRRVLAKRQDIKSDGFSIETCKIMVDMLDEDGSGKLGLKEFYILWTKIQKYQKIYREIDVDRSGTMNSYEMRKALEEAGFKLPCQLHQVIVARFADDELIIDFDNFVRCLVRLETLFKIFKQLDPENTGTIQLNLASWLSFSVL
modifications: full-length
B5: O35943 (protein, UniProt O35943 1-207, looked up)
chain: MWAFGGRAAVGLLPRTASRASAWVGNPRWREPIVTCGRRGLHVTVNAGATRHAHLNLHYLQILNIKKQSVCVVHLRNLGTLDNPSSLDETAYERLAEETLDSLAEFFEDLADKPYTLEDYDVSFGDGVLTIKLGGDLGTYVINKQTPNKQIWLSSPSSGPKRYDWTGKNWVYSHDGVSLHELLARELTKALNTKLDLSSLAYSGKGT
modifications: full-length
B6: O35945 (protein, UniProt O35945 1-501, looked up)
chain: MSSPAQPAVPAPLANLKIQHTKIFINNEWHDSVSSKKFPVLNPATEEVICHVEEGDKADVDKAVKAARQAFQIGSPWRTMDASERGRLLNKLADLMERDRLLLATMESMNAGKVFAHAYLLDVEISIKALQYFAGWADKIHGQTIPSDGNIFTYTRREPIGVCGQIIPWNGPLIIFTWKLGPALSCGNTVVVKPAEQTPLTALHMASLIKEAGFPPGVVNIVPGYGPTAGGAISSHMDIDKVSFTGSTEVGKLIKEAAGKSNLKRVTLELGGKSPCIVFADADLDSAVEFAHQGVFFHQGQICVAASRLFVEESIYDEFVRRSVERAKKYILGNPLNSGINQGPQIDKEQHNKILGLIESGKKEGAKLECGGGRWGNKGFFVQPTVFSNVTDEMRIAKEEIFGPVQQIMKFKSMDDVIKRANNTTYGLAAGVFTKDLDKAITVSSALQAGMVWVNCYLAVPVQCPFGGFKMSGNGRELGEHGLYEYTELKTVAMQISQKNS
modifications: full-length
B7: O70126 (protein, UniProt O70126 1-345, looked up)
chain: MAQKENAYPWPYGSKTSQSGLNTLSQRVLRKEPATTSALALVNRFNSQSTAAPGQKLAENKSQGSTASQGSQNKQPFTIDNFEIGRPLGKGKFGNVYLAREKKSRFIVALKILFKSQIEKEGVEHQLRREIEIQAHLKHPNILQLYNYFYDQQRIYLILEYAPRGELYKELQKSRTFDEQRTATIMEELSDALTYCHKKKVIHRDIKPENLLLGLQGELKIADFGWSVHAPSLRRKTMCGTLDYLPPEMIEGRMHNEMVDLWCIGVLCYELMVGNPPFESPSHSETYRRIVKVDLKFPSSVPSGAQDLISKLLKHNPWQRLPLAEVAAHPWVRANSRRVLPPSAL
modifications: full-length
B8: O35594 (protein, UniProt O35594 1-676, looked up)
chain: MSDQIKFIVDSLNKEPFKKNYNLITFDSLGPMQLLQVLNDVLAEIDPKQDVDIREEMPEQTAKRMLNLLGILKYKPPGNATDMSTFRQGLVIGSKPVIYPVLHWLLQRSNELKKRAYLARFLIKLEVPSEFLQDETVADTNKQYEELMEAFKTLHKECEQLKTSGFSTAEIRRDISAMEEEKDQLMKRVERLKKRVETVQNHQRMLKIARQLRVEKEREEFLAQQKQEQKNQLFHAVQRLQRVQNQLKSMRHAAADAKPESLMKRLEEEIKFNSYMVTEKFPKELESKKKELHFLQKVVSEPAMGHSDLLELETKVNEVNTEINQLIEKKMMRNEPIEGKLSLYRQQASIISRKKEAKAEELQETKEKLASLEREVLVKTNQTREFDGTEVLKGDEFKRYVSKLRSKSTVFKKKHQIIAEFKAEFGLLQRTEELLKQRQETIQHQLRTIEEKKGISGYSYTQEELERVSALKSEVDEMKGRTLDDMSEMVKKLNSLVSEKKSALAPVIKELRQLRQKCQELTQECDEKKAQYDSCAAGLESNRSKLEQEVRGLREECLQEESKYHYTNCMIKNLEVELRRATDEMKAYVSSDQQEKRKAIREQYTKNITEQENLGKKLREKQKAVRESHGPNMKQAKMWRDLEQLMECKKQCFLKQQSPASIGQVIQEGGEDRLVL
modifications: full-length

The molecules below were run on intracellular proteome of ENR+CD and ENR organoids (assay: LC-MS/MS TMT proteomics of ENR+CD versus ENR organoids). Conditions: protein abundance, ENR+CD versus ENR organoids; aggregate of the four sample pairs.
Format: cell-based, C57BL/6 mice
From the text: Because PCs are highly secretory, protein-rich cells, Applicants sought to assess the total intracellular proteome between conditions through liquid chromatography mass spectrometry (LC-MS/MS)-based proteomics. Applicants quantified relative protein abundance across eight samples using isobaric mass tag labeling from four ENR and four ENR+CD samples (M1-1 through M2-2, first digit denotes biological donor, second digit denotes technical replicate) (FIG. 3A). Samples were processed and analyzed in a single 10-plex by LC-MS/MS (FIG. 9A).
To affirm the reproducibility of the associated proteins in the ENR+CD-enriched proteome, Applicants performed relative quantification within differentiation sets.
Mass spectrometry proteomics sample preparation, sequencing, and quantification. Organoid cell pellets were isolated from Matrigel with mechanical dissociation and washed (cold PBS 5X) to remove residual extracellular protein. Proteins were extracted from cell pellets with 8 M urea (Sigma), reduced with 5 mM DTT (Thermo Fisher Pierce) for 45 minutes, alkylated with 10 mM IAA (Sigma) for 45 minutes in the dark, and double digested with both Lysyl Endopeptidase “LysC” (Wako) and trypsin (Promega) overnight at RT. A small aliquot of cellular lysate was removed from each sample for protein quantification via the Pierce™ BCA Protein Assay Kit (Pierce). After proteolytic digestion, the samples were quenched using formic acid to a final concentration of 1.0% and subsequently desalted on 10 mg OASIS HLB solid phase columns (Waters).
The peptides were labeled with TMT-10 isobaric mass tag reagent according to manufacturer's instructions (ThermoFisher Scientific). The peptides were labeled at a 1:8 ratio of peptide to TMT reagent, followed by 1-hour incubation at RT with bench top shaking at 850 rpm. After incubation, a […] of labeled tryptic peptide was removed from each labeled condition, desalted with C18 stage tips, and analyzed via LC-MS/MS using a Thermo Fisher Q Exactive Plus Hybrid Mass Spectrometer (QE-Plus) coupled to a Thermo Fisher EASY-nLC 1000 liquid chromatograph to ensure isobaric label incorporation >95%. An additional 1.0 μg of labeled tryptic peptide was removed from each channel, mixed together, desalted on a C18 stage tip, and analyzed via LC-MS to ensure equal relative protein loads. During these quality control steps, the labeled peptides were stored, unquenched at −80° C.

| Molecule | Average logFC |
| --- | --- |
| B1 | −1.266 |
| B2 | 1.464 |
| B3 | −1.611 |
| B4 | 1.309 |
| B5 | −1.193 |
| B6 | −1.329 |
| B7 | −1.165 |
| B8 | 1.151 |

Same assay, conditions: protein abundance, ENR+CD versus ENR organoids; replicate M1-1; log2 ratio

| Molecule | M1-1 Log2 Median Normalized |
| --- | --- |
| B1 | −1.09 |
| B2 | 1.443 |
| B3 | −1.64 |
| B4 | 1.421 |
| B5 | −0.813 |
| B6 | −1.241 |
| B7 | −1.572 |
| B8 | 0.817 |

Same assay, conditions: protein abundance, ENR+CD versus ENR organoids; replicate M1-2; log2 ratio

| Molecule | M1-2 Log2 Median Normalized |
| --- | --- |
| B1 | −1.001 |
| B2 | 1.37 |
| B3 | −2.141 |
| B4 | 1.297 |
| B5 | −0.849 |
| B6 | −1.721 |
| B7 | −0.967 |
| B8 | 1.152 |

Same assay, conditions: protein abundance, ENR+CD versus ENR organoids; replicate M2-1; log2 ratio

| Molecule | M2-1 Log2 Median Normalized |
| --- | --- |
| B1 | −1.4995 |
| B2 | 1.4835 |
| B3 | −1.5875 |
| B4 | 1.1725 |
| B5 | −1.3945 |
| B6 | −1.8345 |
| B7 | −0.8395 |
| B8 | 1.1275 |

Same assay, conditions: protein abundance, ENR+CD versus ENR organoids; replicate M2-2; log2 ratio

| Molecule | M2-2 Log2 Median Normalized |
| --- | --- |
| B1 | −1.475 |
| B2 | 1.56 |
| B3 | −1.077 |
| B4 | 1.347 |
| B5 | −1.715 |
| B6 | −0.518 |
| B7 | −1.281 |
| B8 | 1.543 |

Same assay, conditions: up = enriched in ENR+CD, down = enriched in ENR; FDR<0.05 and log fold change cut-off

| Molecule | change |
| --- | --- |
| B1 | down |
| B2 | up |
| B3 | down |
| B4 | up |
| B5 | down |
| B6 | down |
| B7 | down |
| B8 | up |
